From patent publication US20090099193 come the findings set out here.

This data set deals with TK substrate 1 (HTRF KinEASE-TK kit; Cisbio Inc.).

B1: EML4-ALK fusion polypeptide v3 having the FLAG tag at the N-terminus (protein)
chain: MDGFAGSLDDSISAASTSDVQDRLSALESRVQQQEDEITVLKAALADVLRRLAISEDHVASVKKSVSSKGQPSPRAVIPMSCITNGSGANRKPSHTSAVSIAGKETLSSAAKSGTEKKKEKPQGQREKKEESHSNDQSPQIRASPSPQPSSQPLQIHRQTPESKNATPTKSIKRPSPAEKSHNSWENSDDSRNKLSKIPSTPKLIPKVTKTADKHKDVIINQAKMSTRKKNSQVYRRKHQELQAMQMELQSPEYKLSKLRTSTIMTDYNPNYCFAGKTSSISDLKEVPRKNITLIRGLGHGAFGEVYEGQVSGMPNDPSPLQVAVKTLPEVCSEQDELDFLMEALIISKFNHQNIVRCIGVSLQSLPRFILLELMAGGDLKSFLRETRPRPSQPSSLAMLDLLHVARDIACGCQYLEENHFIHRDIAARNCLLTCPGPGRVAKIGDFGMARDIYRASYYRKGGCAMLPVKWMPPEAFMEGIFTSKTDTWSFGVLLWEIFSLGYMPYPSKSNQEVLEFVTSGGRMDPPKNCPGPVYRIMTQCWQHQPEDRPNFAIILERIEYCTQDPDVINTALPIEYGPLVEEEEKVPVRPKDPEGVPPLLVSQQAKREEERSPAAPPPLPTTSSGKAAKKPTAAEVSVRVPRGPAVEGGHVNMAFSQSNPPSELHRVHGSRNKPTSLWNPTYGSWFTEKPTKKNNPIAKKEPHERGNLGLEGSCTVPPNVATGRLPGASLLLEPSSLTANMKEVPLFRLRHFPCGNVNYGYQQQGLPLEAATAPGAGHYEDTILKSKNSMNQPGP
Take B1: the “count of HTRF (phosphorylation of the peptide substrate), 100 uM ATP against no ATP” value is reported as “increased by about 20 times by the addition of ATP compare to no addition of ATP”.
